Experimental data as given in patent US20090181444A1, “MODIFIED CARBOHYDRATE PROCESSING ENZYME” (priority 2002, published 2009).
Where a chain is given by its changes, count along the chain named. In names and notes the source's numbering stands. Where a name gives a salt, the structure may show the parent alone.

B1: E432C: SSβG point mutant Glu-432→Cys (protein, listed as Sulfolobus solfataricus)
chain: MYSFPNSFRFGWSQAGFQSEMGTPGSEDPNTDWYKWVHDPENMAAGLVSGDLPENGPGYWGNYKTFHDNAQKMGLKIARLNVEWSRIFPNPLPRPQNFDESKQDVTEVEINENELKRLDEYANKDALNHYREIFKDLKSRGLYFILNMYHWPLPLWLHDPIRVRRGDFTGPSGWLSTRTVYEFARFSAYIAWKFDDLVDEYSTMNEPNVVGGLGYVGVKSGFPPGYLSFELSRRHMYNIIQAHARAYDGIKSVSKKPVGIIYANSSFQPLTDKDMEAVEMAENDNRWWFFDAIIRGEITRGNEKIVRDDLKGRLDWIGVNYYTRTVVKRTEKGYVSLGGYGHGCERNSVSLAGLPTSDFGWEFFPEGLYDVLTKYWNRYHLYMYVTENGIADDADYQRPYYLVSHVYQVHRAINSGADVRGYLHWSLADNYCWASGFSMRFGLLKVDYNTKRLYWRPSALVYREIATNGAITDEIEHLNSVPPVKPLRH
B2: W433C: SSβG point mutant Trp-433→Cys (protein, listed as Sulfolobus solfataricus)
chain: B1 chain with C432E, W433C
B3: M439C: SSβG point mutant Met-439→Cys (protein)
chain: B1 chain with C432E, M439C
B4: C344S: SsβG mutant C344S, side chain at position 439 —CH2CH2SCH3 (protein)
chain: B1 chain with C344S, C432E

Columns and labels:
[1] = Hydrolysis of 4-methylumbelliferyl-β-D-fucoside, initial rates; format: biochemical; conditions: for Km / kcat: 4-MUFuc, 80° C., pH 6.5
Protocol: (§1) Parameters were determined by the method of initial rates. Activity was measured in time course assays of the hydrolysis of 4-methylumbelliferyl-β-D-glycosides (β-D-gluco, β-D-galacto, β-D-fuco, β-D-manno, β-D-xylo, β-D-glucurono) at 5-15 concentrations (0.001-1.5 mM) incubated at 80° C. in 50 mM sodium phosphate buffer, pH 6.5. Reactions were terminated at 2, 5, 10, 15 min by the addition of 100 μl of ice cold 1M NazCO3, pH 10 and analyzed (Labsystems Fluoroscan Ascent plate reader, […]). KM and kcat were derived by fitting the initial rates to hyperbolic Michaelis-Menten curves using GraFit 4 (Erithacus Software Ltd, Staines, UK).
(§2) Determination of the Michaelis-Menten parameters for the WT and mutant enzymes was performed at pH 6.5 at 80° C. for a broad range of representative, fluorophore-containing 4-methylumbelliferyl glycoside substrates, which allowed activities to be determined with a high degree of sensitivity (Table). Under these optimized assay conditions, the glucoside (Glc), galactoside (Gal) and fucoside (Fuc) substrates were hydrolysed well by SSβG-WT, but the xyloside (Xyl) substrate was hydrolysed relatively poorly (approx. 3% of turnover as determined by kcat compared with β-D-glucoside). […] In all cases the absolute D-stereospecificity and β-stereoselectivity of SSβG was maintained and no activity was detected towards L- or α-glycoside substrates.

[2] = Hydrolysis of 4-methylumbelliferyl-β-D-mannoside, initial rates; format: biochemical; conditions: for Km / kcat: 4-MUMan, 80° C., pH 6.5
Protocol: as §1, §2

[3] = Hydrolysis of 4-methylumbelliferyl-β-D-glucoside, initial rates; format: biochemical; conditions: 80° C., pH 6.5; for Km / kcat: 4-MUGlc
Protocol: as §1, §2

[4] = Hydrolysis of 4-methylumbelliferyl-β-D-galactoside, initial rates; format: biochemical; conditions: 80° C., pH 6.5; for Km / kcat: 4-MUGal
Protocol: as §1, §2

[5] = Parallel one-pot glycoside synthesis (transglycosylation to MeOH); format: biochemical; conditions: 8 h, 50° C., 1:9 MeOH:phosphate buffer pH 6.5
Protocol: Enzyme (WT, […] or E432C, 1 mg) was added to a mixed solution (1 mL) of para-nitrophenyl (pNP) β-D-manno-, galacto-, gluco- and xylo- pyranosides (0.03 mmol of each) in 1:9 MeOH:phosphate buffer (pH 6.5) and incubated at 50° C. for 45 min (WT), 4 h (WT), 8 h (W433C, E432C). After this time the solutions were extracted with EtOAc to remove para-nitrophenol and passed through short Sephadex and Celite:Graphite (1:1) columns to remove protein, pNP-glycoside and remaining para-nitrophenol. Solvent was removed and product mixtures were analysed by ^1H NMR and ESMS. Yields based on donor were calculated from integration of anomeric proton resonances in ^1H NMR (D2O, 500 MHz): α-Gal (δ 5.12, d, […]), α-Glc (δ 5.08, d, 3.8 Hz), α-Xyl (δ 5.04, d, J=3.4 Hz), α-Man (δ 5.03, d, J=1.8 Hz), β-Man (δ 4.75, s), β-Glc (δ 4.49, d, J=8.0 Hz), P-Gal (δ 4.45, d, 7.9 Hz), Me-β-Man (δ 4.44, s), β-Xyl (δ 4.42, d, J=7.8 Hz), Me-β-Glc (δ 4.23, d, J 8.1 Hz), Me-β-Xyl (δ 4.18, d, J=7.8 Hz), Me-β-Gal (δ 4.17, d, J=8.0 Hz).
Scheme 1: Parallel glycoside syntheses using SSβG-WT, -E432C and -W433C as catalysts. […] Such balanced libraries are not produced by SSβG-WT even under varying reaction times.

[6] = Hydrolysis of 4-methylumbelliferyl-β-D-xyloside, initial rates; format: biochemical; conditions: for Km / kcat: 4-MUXyl, 80° C., pH 6.5
Protocol: as §1, §2

[7] = Hydrolysis of 4-methylumbelliferyl-β-D-glucuronide, initial rates; format: biochemical; conditions: for kcat / Km: 4-MUGlcA, 80° C.
Protocol: as §1, §2

[8] = Substrate specificity compared across 4-methylumbelliferyl-β-D-glycosides; format: biochemical
Protocol: as §1, §2

[9] = Kinetic assay with p-nitrophenyl β-D-galactopyranoside, absorbance at 405 nm; format: biochemical; conditions: pNPGal, 45° C., pH 6.5 phosphate buffer, averaged over 3 runs, except * 2 runs
Protocol: (§3) The kinetic activity of SsδG was assessed using ultra-violet/visible spectroscopy. Cleavage of the glycosidic bond of the nitrophenyl sugar analogue releases a chromophore (Scheme 18), either p-nitrophenol or o-nitrophenol.
(§4) The absorbance of these chromophores at 405 nm was continuously measured at regular time intervals, and the Beer-Lambert Law used to calculate the chromophore concentration at each of these time intervals.
(§5) In order to use this equation the extinction coefficient, ∈, of both p-nitrophenol and o-nitrophenol were calculated. Enzyme kinetic parameters were assessed using the initial rates method. The gradient of a plot of chromophore concentration against time gave the initial rate of reaction at a series of substrate concentrations (0.05-10 mM). Kinetic parameters were calculated by regression analysis of the kinetic data on the Michaelis-Menten Model (Fersht, A., Enzyme Structure and Mechanism, W.H. Freeman and Company, New York (1985)). The initial rate of reaction was measured. This model is valid when [substrate]>>[enzyme], which are initial rate conditions.
(§6) KM and νmax were calculated from non-linear Michaelis-Menten and linear Lineweaver-Burk plots. From these values, kcat and kcat/KM were calculated and compared.
(§7) KM=νmax/2, it is the concentration of substrate at which half the active sites are filled. Higher KM values correspond to weaker binding and lower KM values correspond to stronger binding kcat, the turnover number is the number of substrate molecules which are converted to product when the enzyme is saturated with substrate and ν (rate) is maximised. Given both of these considerations, binding and rate, kcat/KM is typically as a measure of the overall relative activity of the enzyme. To allow comparison of the activity of the enzymes, ln({kcat/KM}mutant/{kcat/KM}WT) was calculated for each enzyme-substrate combination, to give overall activity relative to WT.
Substrate solutions (concentration 10 mM in 50 mM pH 6.5 phosphate buffer) were prepared. Kinetic assays were conducted in a 96-well flat bottom microtitre plate. Eight substrate concentrations were chosen for the assay from the range 0.05 mM to 10 mM (prepared from 10 mM stock solution), based on previous experimental experience of the kinetics of each enzyme (default range 0.05 mM to 2.00 mM)*. The enzyme stock solution (˜1 mgmL^−1) was diluted between 16- and 80-fold depending on the kinetic parameters determined*. The enzyme solution (496 µL) was dispensed into a 1.5 mL sealed Eppendorf tube. Into eight further Eppendorf tubes a portion of each substrate solution (650 μL) was dispensed. The tubes were incubated in a Techni Dri Block at 45° C. Simultaneously a 96-well flat bottom microtitre plate was incubated at 45° C. in a plate reader. […] The plate containing the enzyme and substrate solutions was then incubated in the plate reader at 45° C. to allow equilibration. […] Release of p-nitrophenol/o-nitropbenol was measured by absorbance at […], with an automix of 3 s before the first read and Is between every subsequent read. The run time chosen was between 6 min and 10 min*, and readings were taken at intervals of between 6 s and 10 s*.
(§8) A graph of concentration of the released chromophore (either pNP or oNP) against time was drawn for each concentration using Microsoft Excel. […] These gradients were entered into Grafit, which calculated KM and νmax from the Michelis-Menten and Lineweaver-Burk plots. From these kcat and kcat/KM could be calculated. […]

[10] = Kinetic assay with o-nitrophenyl β-D-galactopyranoside-6-phosphate, absorbance at 405 nm; format: biochemical; conditions: oNPGalP6, 45° C., pH 6.5 phosphate buffer; averaged over 3 runs, except * 2 runs
Protocol: as §3, §4, §5, §6
as §7, with “Given both of these considerations, binding and rate, kcat/KM is typically as a measure of the overall relative activity of the enzyme.” left out
Substrate solutions (concentration 10 mM in 50 mM pH 6.5 phosphate buffer) were prepared. […] The enzyme stock solution (˜1 mgmL^−1) was diluted between 16- and 80-fold depending on the kinetic parameters determined*. […] Simultaneously a 96-well flat bottom microtitre plate was incubated at 45° C. in a plate reader. […] The plate containing the enzyme and substrate solutions was then incubated in the plate reader at 45° C. to allow equilibration. […] Release of p-nitrophenol/o-nitropbenol was measured by absorbance at […], with an automix of 3 s before the first read and Is between every subsequent read. The run time chosen was between 6 min and 10 min*, and readings were taken at intervals of between 6 s and 10 s*.
as §8

Molecule	melting point	Km [1]	kcat [1]	Km [2]	kcat [2]	Km [3]	kcat [3]	Glc kcat/KM reduction relative to WT [3]	Km [4]	kcat [4]	Gal kcat/KM reduction relative to WT [4]	Yield of Products, product 1 (β-glycoside of Glc) [5]	Yield of Products, product 2 (β-glycoside of Gal) [5]	Yield of Products, product 3 (β-glycoside of Man) [5]	Yield of Products, product 4 (β-glycoside of Xyl) [5]	Yield of Products, product 5 [5]	Yield of Products, product 6 [5]	Km [6]	kcat [6]	kcat ([7]; pH 6.5)	other results
O=[N+]([O-])c1ccccc1O[C@@H]1O[C@H](COP(=O)(O)O)[C@H](O)[C@H](O)[C@H]1O (as salt: ammonium) [Enzyme 17, o-nitrophenyl β-D-galactopyranoside 6-phosphate]	181 to 183.1 °C	–	–	–	–	–	–	–	–	–	–	–	–	–	–	–	–	–	–	–	–
CS(=O)(=S)OCCC(=O)O (stereo not drawn) [Enzyme 16, 2-carboxyethyl methanethiosulfonate]	44 to 46 °C	–	–	–	–	–	–	–	–	–	–	–	–	–	–	–	–	–	–	–	–
B1	–	340 ± 40 µM	18 ± 1 s⁻¹	900 ± 260 µM	2.8 ± 0.7 s⁻¹	340 ± 70 µM	5.1 ± 0.5 s⁻¹	200 fold	470 ± 140 µM	5.4 ± 0.8 s⁻¹	130 fold	22%	24%	14%	17%	7%	9%	1260 ± 210 µM	2.8 ± 0.3 s⁻¹	NAD	kcat (Man) increase relative to WT [2]: 2 fold; Yield of Products, product 7 [5]: 3%; Yield of Products, product 8 [5]: 4%; activity towards GlcA ([7]; pH 6.5): no detectable activity; kcat values for Glc,Gal,Xyl,Man substrates [8]: 2.8 to 5.4 s⁻¹
B2	–	410 ± 90 µM	31 ± 3 s⁻¹	180 ± 20 µM	0.92 ± 0.05 s⁻¹	1610 ± 350 µM	33 ± 5 s⁻¹	140 fold	2200 ± 1200 µM	14 ± 6 s⁻¹	230 fold	36%	18%	8%	13%	11%	6%	590 ± 190 µM	1.5 ± 0.3 s⁻¹	NAD	Yield of Products, product 7 [5]: 3%; Yield of Products, product 8 [5]: 5%; kcat (Xyl) lowering relative to WT [6]: 2.9 fold; Km ([7]; pH 6.5): NAD^; broadening of Gal:Man stereospecificity relative to WT [8]: 25 fold; specificity range of kcat/KM for Glc:Gal:Xyl:Man [8]: 8 fold
B3	–	23 ± 5 µM	91 ± 8 s⁻¹	42 ± 15 µM	2.3 ± 0.4 s⁻¹	68 ± 28 µM	190 ± 40 s⁻¹	–	83 ± 16 µM	94 ± 11 s⁻¹	–	–	–	–	–	–	–	68 ± 7 µM	9.3 ± 0.2 s⁻¹	1.3 ± 0.4 s⁻¹	kcat/KM for Fuc lower than WT [1]: 1.8 fold; kcat/KM for Xyl higher than WT [6]: 4.7 fold; absolute increase in Xyl activity ([6]; relative to WT): 5 fold; kcat/KM for GlcA higher than WT [7]: 1.5 fold; Km ([7]; pH 6.5, read-out: Km): 1400 ± 600 µM; increase in Xyl over Fuc specificity ([8]; relative to WT): 10 fold
B4	–	–	–	–	–	–	–	–	–	–	–	–	–	–	–	–	–	–	–	–	kcat [9]: 4.16 s⁻¹; Km ([9]; read-out: KM): 475 µM; Km [10]: 3590 µM; kcat [10]: 8.42 s⁻¹
